B1: Saccharomyces cerevisiae mitochondrial manganese superoxide dismutase (ScMnSOD) (enzyme, UniProt P00447 27-233, looked up)
chain: KVTLPDLKWDFGALEPYISGQINELHYTKHHQTYVNGFNTAVDQFQELSDLLAKEPSPANARKMIAIQQNIKFHGGGFTNHCLFWENLAPESQGGGEPPTGALAKAIDEQFGSLDELIKLTNTKLAGVQGSGWAFIVKNLSNGGKLDVVQTYNQDTVTGPLVPLVAIDAWEHAYYLQYQNKKADYFKAIWNVVNWKEASRRFDAGKI

Experiments:
[1] = target: Candida albicans cytosolic manganese superoxide dismutase (CaMnSODc) (Candida albicans); experiment: crystal structure
[2] = target: Candida albicans cytosolic manganese superoxide dismutase (CaMnSODc) (Candida albicans); experiment: crystal structure; remark: listed apart in the source
[3] = target: Candida albicans cytosolic manganese superoxide dismutase (CaMnSODc) (Candida albicans); experiment: SEC
SEC = target: the molecule itself; experiment: SEC

Molecule | stoichiometry N [1] | stoichiometry N [2] | stoichiometry N [3] | stoichiometry N (SEC)
Candida albicans cytosolic manganese superoxide dismutase (CaMnSODc) (enzyme) | 2 | 4 | 2 | –
B1 | – | – | – | 4
